Assay results published in patent publication US20180086816A1.

Target: prolactin-receptor on NB2-11 cells (rat lymphoma cells) (rat (NB2-11 rat lymphoma cells)) (UniProt P05710)
Assay: cell-based or functional assay

UniProt P05710, sequence (P05710 20-610): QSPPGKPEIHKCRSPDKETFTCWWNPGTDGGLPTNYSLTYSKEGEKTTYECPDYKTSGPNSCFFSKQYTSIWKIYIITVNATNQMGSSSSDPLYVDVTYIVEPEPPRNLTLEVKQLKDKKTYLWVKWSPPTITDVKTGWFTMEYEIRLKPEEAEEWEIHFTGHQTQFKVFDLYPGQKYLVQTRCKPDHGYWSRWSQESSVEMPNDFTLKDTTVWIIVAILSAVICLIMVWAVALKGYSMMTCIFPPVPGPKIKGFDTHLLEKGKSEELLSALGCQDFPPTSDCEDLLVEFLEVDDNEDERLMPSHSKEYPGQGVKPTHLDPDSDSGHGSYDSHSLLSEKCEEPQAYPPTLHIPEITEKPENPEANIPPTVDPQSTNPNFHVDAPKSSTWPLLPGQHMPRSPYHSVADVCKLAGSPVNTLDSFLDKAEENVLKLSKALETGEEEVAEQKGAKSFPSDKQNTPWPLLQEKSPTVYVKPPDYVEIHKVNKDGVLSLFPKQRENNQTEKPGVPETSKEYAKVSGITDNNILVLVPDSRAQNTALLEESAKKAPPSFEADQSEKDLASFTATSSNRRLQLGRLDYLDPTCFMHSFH

Question: For “CTP modified hGH (hGH with one CTP at the N terminus and two CTP at the C terminus, expressed in HeLa cells) (from UniProt P0DN86 138-165; P01241 27-217; P0DN86 138-165; P0DN86 138-165)”, which NB2-11 cell proliferation, WST formazan absorbance (OD), dose response 0.039 is on record?
Answer: The NB2-11 cell proliferation, WST formazan absorbance (OD), dose response 0.039 was 593.

Question: And the NB2-11 cell proliferation, WST formazan absorbance (OD), dose response 0.059?
Answer: The NB2-11 cell proliferation, WST formazan absorbance (OD), dose response 0.059 was 684.

Question: What about the NB2-11 cell proliferation, WST formazan absorbance (OD), dose response 0.088 of the same substance?
Answer: Its NB2-11 cell proliferation, WST formazan absorbance (OD), dose response 0.088 is 858.

Question: And the NB2-11 cell proliferation, WST formazan absorbance (OD), dose response 0.132?
Answer: Its NB2-11 cell proliferation, WST formazan absorbance (OD), dose response 0.132 is 1050.

Question: And the NB2-11 cell proliferation, WST formazan absorbance (OD), dose response 0.198?
Answer: Its NB2-11 cell proliferation, WST formazan absorbance (OD), dose response 0.198 is 1290.

Question: And the NB2-11 cell proliferation, WST formazan absorbance (OD), dose response 0.296?
Answer: Its NB2-11 cell proliferation, WST formazan absorbance (OD), dose response 0.296 is 1570.

Question: And the NB2-11 cell proliferation, WST formazan absorbance (OD), dose response 0.444?
Answer: The NB2-11 cell proliferation, WST formazan absorbance (OD), dose response 0.444 was 1800.

Question: What about the NB2-11 cell proliferation, WST formazan absorbance (OD), dose response 0.667 of the same substance?
Answer: Its NB2-11 cell proliferation, WST formazan absorbance (OD), dose response 0.667 is 1970.

Question: And the NB2-11 cell proliferation, WST formazan absorbance (OD), dose response 1?
Answer: Its NB2-11 cell proliferation, WST formazan absorbance (OD), dose response 1 is 2110.
